Assay [1] concerns the target human FcRn (human) (UniProt P55899). As to the kind of experiment: MSD, pH 6 [cont'd].
Assay [2] concerns the target human FcγRIIb (human) (UniProt P31994). Briefly: MSD [cont'd].
Assay [3] has as its target human C1q (human) (UniProt P02745). Briefly: MSD [cont'd].
The target in assay [4] is human FcγRIIIa (V158 allele) (human) (UniProt P08637). As to the kind of experiment: MSD [cont'd].
Assay [5] deals with human FcγRIIa (R131 allele) (human) (UniProt P12318). Briefly: MSD [cont'd].
Chain of human FcγRIIa (R131 allele) (human) (P12318 34-218 H167R limits assumed): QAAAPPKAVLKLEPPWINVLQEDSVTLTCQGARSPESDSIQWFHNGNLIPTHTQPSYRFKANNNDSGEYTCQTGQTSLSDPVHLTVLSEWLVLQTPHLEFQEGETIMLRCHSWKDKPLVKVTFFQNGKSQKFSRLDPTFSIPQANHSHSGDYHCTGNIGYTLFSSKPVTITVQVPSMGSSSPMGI
Assay [6] has as its target human FcγRIIa (H131 allele) (human) (UniProt P12318). As to the kind of experiment: MSD [cont'd].
The target in assay [7] is human FcγRIIIa (F158 allele) (human) (UniProt P08637). Briefly: MSD [cont'd].
Chain of human FcγRIIIa (F158 allele) (human) (P08637 17-208 limits assumed): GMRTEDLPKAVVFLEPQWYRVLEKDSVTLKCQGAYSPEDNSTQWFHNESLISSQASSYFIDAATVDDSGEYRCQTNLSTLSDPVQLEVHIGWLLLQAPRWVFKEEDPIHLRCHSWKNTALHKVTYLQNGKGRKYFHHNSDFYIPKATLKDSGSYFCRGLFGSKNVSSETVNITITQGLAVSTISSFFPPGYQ
Assay [8] concerns the target human FcγRIIb (human) (UniProt P31994). Briefly: MSD.
Assay [9] deals with human FcγRIIa (R131 allele) (human) (UniProt P12318). Briefly: MSD.
In assay [10] the target is human FcγRIIa (H131 allele) (human) (UniProt P12318). As to the kind of experiment: MSD.
Chain of human FcγRIIa (H131 allele) (human) (P12318 34-218 limits assumed): as the sequence (P12318 34-218 H167R limits assumed) above, with R134H counted along it
Assay [11] has as its target human FcγRIIIb (human) (UniProt O75015). As to the kind of experiment: MSD.
Assay [12] concerns the target human FcγRIIIa (V158 allele) (human) (UniProt P08637). As to the kind of experiment: MSD.
The target in assay [13] is human FcγRIIIa (F158 allele) (human) (UniProt P08637). As to the kind of experiment: MSD.
For assay [14] the target is unchanged. As to the kind of experiment: MSD electrochemiluminescence binding assay; column IIIA_F.
The target in assay [15] is human FcγRIIa (R131 allele) (human) (UniProt P12318). Briefly: MSD electrochemiluminescence binding assay; column IIA_R.
Assay [16] concerns the target human FcγRIIb (human) (UniProt P31994). Briefly: MSD electrochemiluminescence binding assay; column IIB.
Assay [17] concerns the target human FcγRIIIa (V158 allele) (human) (UniProt P08637). Briefly: MSD electrochemiluminescence binding assay; column IIIA_V.
The target in assay [18] is human FcγRIIIb (human) (UniProt O75015). As to the kind of experiment: MSD electrochemiluminescence binding assay; column IIIB.
Chain of human FcγRIIIb (human) (O75015 17-200 limits assumed): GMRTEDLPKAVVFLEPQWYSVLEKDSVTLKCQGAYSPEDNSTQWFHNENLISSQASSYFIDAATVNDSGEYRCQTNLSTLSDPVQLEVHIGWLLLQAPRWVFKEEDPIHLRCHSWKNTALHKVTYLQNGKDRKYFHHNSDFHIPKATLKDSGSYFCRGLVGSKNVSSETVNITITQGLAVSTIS
Assay [19] addresses human FcRn (human) (UniProt P55899). Briefly: MSD electrochemiluminescence binding assay; column FcRn.
The target of assay [20] is human FcγRIIa (H131 allele) (human) (UniProt P12318). Briefly: MSD electrochemiluminescence binding assay; column IIA_H.
The target of assay [21] is human FcγRIIIa (V158 allele) (human) (UniProt P08637).
The target of assay [22] is human FcRn (human) (UniProt P55899). As to the kind of experiment: MSD [cont'd].
Chain of human FcRn (human) (P55899 24-297 limits assumed, chain 1 of 2): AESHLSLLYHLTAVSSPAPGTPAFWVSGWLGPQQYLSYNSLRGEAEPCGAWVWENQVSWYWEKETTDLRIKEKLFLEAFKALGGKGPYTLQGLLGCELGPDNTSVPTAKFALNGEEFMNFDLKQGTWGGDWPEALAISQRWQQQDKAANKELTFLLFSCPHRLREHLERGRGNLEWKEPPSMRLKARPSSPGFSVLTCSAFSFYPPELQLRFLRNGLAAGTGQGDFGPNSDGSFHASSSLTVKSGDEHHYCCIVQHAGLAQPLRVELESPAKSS
Chain of human FcRn (human) (chain, as listed by the source limits assumed, chain 2 of 2): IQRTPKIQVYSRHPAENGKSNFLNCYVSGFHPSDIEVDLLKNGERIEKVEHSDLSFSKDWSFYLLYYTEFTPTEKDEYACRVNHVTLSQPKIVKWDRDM
Assay [23] has as its target human FcγRIIIb (human) (UniProt O75015). As to the kind of experiment: MSD [cont'd].

Data on 21 substances can be found in patent US20260184814A1, “BROADLY NE[…] INFLUENZA NEURAMINIDASE” (priority 2022, published 2026).

Chain of human FcγRIIIa (V158 allele) (human) (P08637 17-208 F176V limits assumed): as the sequence (P08637 17-208 limits assumed) above, with F160V counted along it
Chain of human FcγRIIb (human) (P31994 43-217 limits assumed): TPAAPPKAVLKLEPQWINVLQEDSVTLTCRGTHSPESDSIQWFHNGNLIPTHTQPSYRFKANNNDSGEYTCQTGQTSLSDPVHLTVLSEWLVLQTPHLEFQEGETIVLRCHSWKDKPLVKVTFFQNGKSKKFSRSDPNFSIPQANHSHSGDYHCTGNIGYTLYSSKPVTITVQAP
Chain of human C1q (human) (P02745 23-245 limits assumed, chain 1 of 3): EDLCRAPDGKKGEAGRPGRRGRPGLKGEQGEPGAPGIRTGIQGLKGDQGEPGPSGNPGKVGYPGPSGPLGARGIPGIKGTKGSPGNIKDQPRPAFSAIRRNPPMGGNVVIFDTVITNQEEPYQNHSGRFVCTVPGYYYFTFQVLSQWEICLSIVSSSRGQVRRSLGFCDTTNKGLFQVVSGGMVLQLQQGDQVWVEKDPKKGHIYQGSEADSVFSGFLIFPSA
Chain of human C1q (human) (P02746 28-253 limits assumed, chain 2 of 3, further chain): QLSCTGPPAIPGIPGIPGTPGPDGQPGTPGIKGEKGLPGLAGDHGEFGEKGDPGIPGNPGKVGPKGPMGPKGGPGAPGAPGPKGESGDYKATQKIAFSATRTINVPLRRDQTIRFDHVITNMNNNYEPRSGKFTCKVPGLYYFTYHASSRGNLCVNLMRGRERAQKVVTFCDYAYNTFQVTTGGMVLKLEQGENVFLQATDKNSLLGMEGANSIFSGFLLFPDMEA
Chain of human C1q (human) (P02747 29-245 limits assumed, chain 3 of 3, further chain): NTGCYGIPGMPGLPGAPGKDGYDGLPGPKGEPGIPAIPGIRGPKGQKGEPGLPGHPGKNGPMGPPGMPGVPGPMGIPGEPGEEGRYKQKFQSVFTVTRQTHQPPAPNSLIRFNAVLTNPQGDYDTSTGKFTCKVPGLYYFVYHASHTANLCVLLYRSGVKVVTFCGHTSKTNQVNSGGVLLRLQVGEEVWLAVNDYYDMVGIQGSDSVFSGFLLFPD

For the substance R292P (antibody), the fold-change to WT Fc in assay [1] amounted to 0.898 fold; in assay [3], 0.549 fold; in assay [4], 0.917 fold; in [7] it was 0.79 fold; in assay [8], 0.541 fold; in assay [9], 0.454 fold. In addition, the fold-change to WT Fc in [10] was found to be 0.577 fold. Also, the fold-change vs wt in [2] came out at 0.54 fold; in [5], 0.45 fold; in assay [6] it was 0.58 fold.

For the substance G236A_R292P_Y300L-afuc (antibody), the fold-change (reference not given) is 1.8 fold in assay [11]; 9.1 fold in assay [12]; 2.2 fold in assay [9]; 11.2 fold in assay [10]; 19.7 fold in assay [13].

In the case of G236A_E272Y_S298N (antibody), the fold-change in binding vs wild-type IgG1 worked out at 0.31 in assay [14]; 0.38 in assay [15]; 0.19 in assay [16]; 0.06 in [17]; 0.62 in assay [18]; 0.98 in assay [19]. For the same substance, in assay [20], the fold-change in binding vs wild-type IgG1 was found to be 0.63.

In turn, G236A_Y300L-afuc (antibody) came in with a FcγR reporter signaling, fold to wt-fucose [cont'd] in assay [21] of 3.49 fold. Moreover, the fold to wt-fucose in assay [22] was 0.92 fold; in assay [23], 2.55 fold; in assay [2], 0.93 fold; in [4] it was 13.7 fold; in assay [5] it was 3.95 fold; in assay [6], 14.9 fold. In addition, in assay [7], the fold to wt-fucose worked out at 30.1 fold. The fold-change (reference not given) in [11] was 2.6 fold; in [8] it was 0.9 fold; in assay [12], 13.7 fold; in assay [9], 4 fold; in assay [10], 14.9 fold; in assay [13] it was 30.1 fold.

C220P (antibody): the fold-change to WT Fc amounted to 0.991 fold in [1]; 0.761 fold in [3]; 1.33 fold in [4]; 0.99 fold in assay [7]; 1.21 fold in [8]; 1.04 fold in assay [9]. In assay [10], the fold-change to WT Fc amounted to 1.17 fold.

As for P245A_Q295E_S298N (antibody), the fold-change in binding vs wild-type IgG1 in assay [14] is 0.34; in [15] it was 0.3; in [16], 0.31; in [17] it was 0.1; in [18] it was 0.89; in assay [19], 0.85. Also, the fold-change in binding vs wild-type IgG1 in [20] came to 0.28.

Turning to G236A_R292P_G446E (antibody), the fold-change to WT Fc in assay [1] turned out to be 0.851 fold; in assay [3], 0.099 fold; in assay [4] it was 0.415 fold; in assay [7], 0.552 fold; in [8], 0.512 fold; in [9] it was 0.986 fold. The fold-change to WT Fc in [10] turned out to be 4.54 fold.

On to G236A_A330L_I332E (antibody), for which the fold-change to WT Fc in [1] was 0.937 fold; in assay [3], -0.004 fold; in [8] it was 0.605 fold; in assay [10] it was 3.6 fold.

Turning to G236L (antibody), the fold-change to WT Fc in assay [1] is 0.949 fold; in assay [3] it was 1.48 fold; in assay [4] it was 0.083 fold; in assay [7], 0.345 fold; in assay [8], 0.395 fold; in assay [9], 1.42 fold. The fold-change to WT Fc in [10] was 0.435 fold.

Take L234D_G236D_K326E (antibody): the fold-change in binding vs wild-type IgG1 in assay [14] came out at 0.35; in assay [15], 0.3; in assay [16], 0.28; in assay [17], 0.05; in [18] it was 0.6; in [19] it was 0.83. The fold-change in binding vs wild-type IgG1 in assay [20] was 0.14.

On to L328V_Q295E_S298N (antibody), for which the fold-change in binding vs wild-type IgG1 is 0.28 in assay [14]; 0.33 in assay [15]; 0.32 in assay [16]; 0.08 in [17]; 0.79 in [18]; 1.02 in assay [19]. In addition, in [20], the fold-change in binding vs wild-type IgG1 came to 0.26.

On to G236A_Q295E_S298N (antibody), for which the fold-change in binding vs wild-type IgG1 was determined as 0.35 in assay [14]; 0.65 in [15]; 0.23 in [16]; 0.07 in assay [17]; 0.76 in assay [18]; 0.93 in [19]. Also, the fold-change in binding vs wild-type IgG1 in assay [20] amounted to 1.82.

Consider G446E (antibody), for which the fold-change to WT Fc in [1] turned out to be 1.06 fold; in assay [3] it was 0.84 fold; in assay [4], 1.42 fold; in assay [7] it was 1.1 fold; in [8] it was 1.17 fold; in assay [9], 1.05 fold. The fold-change to WT Fc in assay [10] turned out to be 1.11 fold.

For the substance G236A_R292P_A431G (antibody), the fold-change to WT Fc in assay [1] is 0.674 fold; in assay [3], 0.1 fold; in assay [4], 0.394 fold; in [7], 0.569 fold; in assay [8] it was 0.511 fold; in assay [9] it was 0.939 fold. Also, the fold-change to WT Fc in assay [10] was 5.21 fold.

For L234D_V264R_K326E (antibody), the fold-change in binding vs wild-type IgG1 in assay [14] was 0.27; in assay [15], 0.25; in assay [16] it was 0.5; in [17] it was 0.05; in assay [18], 0.6; in [19], 0.83. Further, the fold-change in binding vs wild-type IgG1 in assay [20] was found to be 0.14.

On to A330L_I332E-afuc (antibody), for which the fold to wt-fucose was found to be 37.4 fold in [23]; 0.61 fold in assay [2]; 37.8 fold in assay [4]; 0.53 fold in assay [5]; 0.42 fold in assay [6]; 191 fold in [7].

The substance G236S-afuc (antibody) displayed a FcγR reporter signaling, fold to wt-fucose [cont'd] in [21] of 2.86 fold. For the same substance, the fold to wt-fucose in [22] came out at 0.85 fold; in assay [23], 1.37 fold; in assay [2], 1.08 fold; in assay [4], 4.63 fold; in assay [5] it was 4.39 fold; in assay [6], 7.37 fold. The fold to wt-fucose in [7] was determined as 10.6 fold.

Regarding R292P_G446E (antibody), the fold-change to WT Fc in [1] was 0.884 fold; in assay [3], 0.391 fold; in assay [4], 0.916 fold; in [7], 0.779 fold; in assay [8], 0.562 fold; in assay [9], 0.45 fold. Further, in assay [10], the fold-change to WT Fc came to 0.628 fold.

In the case of G236A_L328V_Q295E-afuc (antibody), the fold-change (reference not given) in assay [11] came out at 2.4 fold; in assay [12], 7.4 fold; in assay [9], 9.6 fold; in assay [10], 6.7 fold; in assay [13], 11.8 fold.

As for K334A_Q295E_S298N (antibody), the fold-change in binding vs wild-type IgG1 in [14] was 0.37; in assay [15] it was 0.28; in [16], 0.47; in assay [17] it was 0.09; in assay [18], 0.93; in [19], 0.91. Also, the fold-change in binding vs wild-type IgG1 in assay [20] was 0.22.

On to A431G (antibody), for which the fold-change to WT Fc in assay [1] came out at 0.916 fold; in assay [3], 0.824 fold; in assay [4], 1.61 fold; in [7], 1.23 fold; in assay [8] it was 1.5 fold; in assay [9], 1.38 fold. The fold-change to WT Fc in assay [10] was 1.76 fold.
